Test results from US20080292639A1 (Amgen, published 2008).

Tests used:
[1] = target: T1, human Aβ40 monomer (human, UniProt P05067 672-711); experiment: BIAcore, antibody captured on protein G or anti-mouse Fc, Aβ monomer injected
T1 construct: domain: Aβ40; Monomeric form
Protocol: (§1) Preparation of BIacore Chip Surfaces: Immobilization of Proteins to a Biacore sensor chip (CM5) was performed according to manufacturer's instructions. Briefly, carboxyl groups on the sensor chip surfaces were activated by injecting 60 μL of a mixture containing 0.2 M N-ethyl-N′-(dimethylaminopropyl)carbodiimide (EDC) and 0.05 M N-hydroxysuccinimide (NHS). Specific surfaces were obtained by injecting rProtein G (Pierce), goat anti-mouse Fc (Jackson Immuno Research Lab) or Aβ aggregates diluted in 10 mM acetate, pH 4.0 at concentrations between 5 and 20 μg/mL. Excess reactive groups on the surfaces were deactivated by injecting 60 μL of 1 M ethanolamine. Final immobilized levels were about 10000 resonance units (RU) for the Protein G and anti-mouse Fc surfaces, and 400 RU for the Aβ aggregates surfaces. A blank, mock-coupled reference surface was also prepared on the sensor chips for background subtraction.
(§2) Kinetic analysis of Aβ monomers binding to protein G captured antibodies: The kinetic analysis of the interaction between Aβ monomers and antibodies was performed as follows: 2.1A and mAb 2.1 were diluted in PBS+0.005% P-20+0.1 mg/mL BSA and injected over the immobilized protein G or anti-mouse Fc surfaces. Aβ monomers were diluted in PBS+0.005% P-20+0.1 mg/mL BSA from 1000 nM to 2 nM, and each concentration was injected over the captured antibody surfaces. After 3 minutes dissociation, each surface was regenerated by injection of 10 mM glycine, pH 1.5.

[2] = target: T2, human Aβ42 monomer (human, UniProt P05067 672-713); experiment: as above
T2 construct: domain: Aβ42; Monomeric form
Protocol: as §1, §2

[3] = target: T3, native amyloid plaques in unfixed brain sections of Tg2576 APP transgenic mice (human, UniProt P05067 672-713, limits assumed); experiment: cell-based or functional assay
[4] = target: T4, human Aβ40 fibrils (human, UniProt P05067 672-711); experiment: BIAcore, antibody injected over immobilized Aβ aggregates
T4 construct: domain: Aβ40; Aggregated (fibrillar) form; also called Fibrillar Aβ40; Aβ40 aggregate
Protocol: as §1
(§3) Kinetic analysis of antibodies binding to immobilized Aβ aggregates: Antibodies were diluted in PBS+0.005% P-20+0.1 mg/mL BSA from 100 nM to 0.2 nM. The samples at each concentration were injected over the immobilized Aβ aggregate surfaces, as well as over a blank surface for background subtraction. After a 15-minute dissociation, the surface was regenerated by injecting 8 mM glycine, pH 3.0, and 1 M NaCl for 30 seconds.

[5] = target: T5, human Aβ42 fibrils (human, UniProt P05067 672-713); experiment: as above
T5 construct: domain: Aβ42; Aggregated (fibrillar) form; also called Fibrillar Aβ42; Aβ42 aggregate
Protocol: as §1, §3

[6] = target: T3, native amyloid plaques in unfixed brain …; experiment: immunohistochemistry on unfixed Tg2576 mouse brain sections

T1 sequence (P05067 672-711 limits assumed): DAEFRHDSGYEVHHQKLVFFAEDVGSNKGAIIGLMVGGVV
T2 sequence (P05067 672-713 limits assumed): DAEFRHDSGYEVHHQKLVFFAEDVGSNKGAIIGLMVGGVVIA
T3 sequence (P05067 672-713 limits assumed): as above
T4 sequence (P05067 672-711 limits assumed): as the sequence (P05067 672-711 limits assumed) above
T5 sequence (P05067 672-713 limits assumed): as the sequence (P05067 672-713 limits assumed) above

| Kd [1] [nM] | koff [1] [s⁻¹] | kon [1] [M⁻¹ s⁻¹] | Kd [2] [nM] | koff [2] [s⁻¹] | kon [2] [M⁻¹ s⁻¹] | EC50 of antibody induced phagocytosis of amyloid [3] [µg/mL] | koff [4] [s⁻¹] | koff [5] [s⁻¹] | binding result [6] | Binder |
| --- | --- | --- | --- | --- | --- | --- | --- | --- | --- | --- |
| 42 | 0.0041 | 98000 | 17 | 0.00072 | 42000 | 0.4 | < 5e-05 | < 5e-05 |  | murine monoclonal anti-amyloid antibody 2.1 (antibody, mouse IgG1, kappa, V domains shown, also called mAb 2.1; 2.1 murine) VH: QVTLKESGPGILKPSQTLSLTCSFSGFSLRTSGMGVGWIRQPSGKGLEWLAHIWWDDDKSYNPSLKSQLTISKDTSRNQVFLKITSVDTADTATYYCARRNYYYDDYFAYWGQGTTLTVSS VL: DVLMTQTPLSLPVSLGDQASISCRSSQSIVHSNGNTYLEWYLQKPGQSPKLLIYKVSNRFSGVPDRFSGSGSGTDFTLKISRVEAEDLGVYYCFQGSHVPLTFGAGTKLELKR |
|  |  |  |  |  |  |  |  |  | no binding (tested: 1 µg/ml) | 2.1 N (antibody, human IgG1, kappa, V domains shown, Humanized IgG) VH: QVTLKESGPALVKPTQTLTLTCTFSGFSLRTSGMGVGWIRQPPGKGLEWLAHIWWDDDKSYNPSLKSQLTISKDTSKNQVVLTMTNMDPVDTATYYCARRNYYYDDYFAYWGQGTTLTVSS VL: DVVMTQSPLSLPVTLGQPASISCRSSQSIVHSNGNTYLEWFQQRPGQSPRRLIYKVSNRFSGVPDRFSGSGSGTDFTLKISRVEAEDVGVYYCFQGSHVPLTFGQGTKLEIKR |
